Values of other authors, collected in article PMC3240149.

Key:
MMP-2 (Homo sapiens) = MMP-2 (Homo sapiens) (UniProt P08253)
[1] = molecular target: TACE (ADAM-17) (Homo sapiens) (UniProt P78536)
MMP-3 (Homo sapiens) = MMP-3 (Homo sapiens) (UniProt P08254)
Chain of UniProt P08254 (P08254 100-477): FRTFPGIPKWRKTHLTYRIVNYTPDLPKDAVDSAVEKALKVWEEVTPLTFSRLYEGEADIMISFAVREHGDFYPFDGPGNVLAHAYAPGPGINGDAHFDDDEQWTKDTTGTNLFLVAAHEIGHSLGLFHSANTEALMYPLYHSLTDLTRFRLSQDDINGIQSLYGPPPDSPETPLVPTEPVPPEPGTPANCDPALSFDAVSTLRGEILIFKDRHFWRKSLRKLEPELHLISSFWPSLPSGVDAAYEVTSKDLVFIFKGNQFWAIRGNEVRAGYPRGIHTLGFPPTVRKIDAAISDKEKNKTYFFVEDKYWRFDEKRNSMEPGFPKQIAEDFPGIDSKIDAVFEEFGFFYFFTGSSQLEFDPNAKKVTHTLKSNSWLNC

Chain of UniProt P78536 (P78536 215-671): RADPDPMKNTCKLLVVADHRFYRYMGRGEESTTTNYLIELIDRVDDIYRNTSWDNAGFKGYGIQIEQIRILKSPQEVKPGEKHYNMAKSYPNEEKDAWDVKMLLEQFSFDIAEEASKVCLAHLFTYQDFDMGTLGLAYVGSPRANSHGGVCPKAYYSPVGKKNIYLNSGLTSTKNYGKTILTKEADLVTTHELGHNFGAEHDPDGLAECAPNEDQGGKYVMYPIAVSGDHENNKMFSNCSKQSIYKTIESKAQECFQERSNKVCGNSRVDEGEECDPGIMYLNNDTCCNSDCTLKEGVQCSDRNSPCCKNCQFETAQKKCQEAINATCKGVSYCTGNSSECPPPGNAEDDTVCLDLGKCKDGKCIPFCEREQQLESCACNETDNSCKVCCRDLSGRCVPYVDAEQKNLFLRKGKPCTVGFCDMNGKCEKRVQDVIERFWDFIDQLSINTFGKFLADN
Chain of UniProt P08253 (P08253 110-660): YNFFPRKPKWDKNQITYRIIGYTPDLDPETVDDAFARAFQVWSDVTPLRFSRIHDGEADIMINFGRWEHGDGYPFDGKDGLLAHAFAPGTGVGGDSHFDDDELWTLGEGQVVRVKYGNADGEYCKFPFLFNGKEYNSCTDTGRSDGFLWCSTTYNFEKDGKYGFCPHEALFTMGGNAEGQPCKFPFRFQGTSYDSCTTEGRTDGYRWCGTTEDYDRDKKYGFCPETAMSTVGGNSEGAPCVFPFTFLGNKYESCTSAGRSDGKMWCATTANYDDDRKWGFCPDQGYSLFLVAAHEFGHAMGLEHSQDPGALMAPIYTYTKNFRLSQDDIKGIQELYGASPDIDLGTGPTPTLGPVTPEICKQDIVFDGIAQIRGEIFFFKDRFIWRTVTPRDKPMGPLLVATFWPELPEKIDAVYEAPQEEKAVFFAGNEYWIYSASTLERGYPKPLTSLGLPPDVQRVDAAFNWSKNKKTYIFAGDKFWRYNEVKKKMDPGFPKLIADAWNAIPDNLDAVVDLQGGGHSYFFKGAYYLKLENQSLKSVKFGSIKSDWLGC

TIMP-2 (from UniProt P16035)
Ki (MMP-2 (Homo sapiens)): 1000 nM

TIMP-3 (from UniProt P35625)
Ki [1]: 0.182 nM | Ki (MMP-3 (Homo sapiens)): 67 nM
